These results are taken from patent publication US20210388087A1 (Chugai, published 2021).

B1: H183/L072 VL P56M (antibody, name in Kabat numbering, V domains shown)
VH: QVQLVESGGGLVQPGRSLRLSCAASGFTFSNAWMHWVRQAPGKGLEWVAQIKDKGNAYAAYYAPSVKGRFTISRDDSKNSIYLQMNSLKTEDTAVYYCHYVHYASASTVLPAFGVDAWGQGTTVTVSS
VL: DIVMTQSPLSLPVTPGEPASISCQASQELVHMNRNTYLHWYQQKPGQAPRLLIYKVSNRFMGVPDRFSGSGSGTDFTLKISRVEAEDVGVYYCAQGTSVPFTFGQGTKLEIK
B2: H183/L072 VL P56W (antibody, name in Kabat numbering, V domains shown)
VH: QVQLVESGGGLVQPGRSLRLSCAASGFTFSNAWMHWVRQAPGKGLEWVAQIKDKGNAYAAYYAPSVKGRFTISRDDSKNSIYLQMNSLKTEDTAVYYCHYVHYASASTVLPAFGVDAWGQGTTVTVSS
VL: DIVMTQSPLSLPVTPGEPASISCQASQELVHMNRNTYLHWYQQKPGQAPRLLIYKVSNRFWGVPDRFSGSGSGTDFTLKISRVEAEDVGVYYCAQGTSVPFTFGQGTKLEIK
B3: H183/L072 VL P56V (antibody, name in Kabat numbering, V domains shown)
VH: QVQLVESGGGLVQPGRSLRLSCAASGFTFSNAWMHWVRQAPGKGLEWVAQIKDKGNAYAAYYAPSVKGRFTISRDDSKNSIYLQMNSLKTEDTAVYYCHYVHYASASTVLPAFGVDAWGQGTTVTVSS
VL: DIVMTQSPLSLPVTPGEPASISCQASQELVHMNRNTYLHWYQQKPGQAPRLLIYKVSNRFVGVPDRFSGSGSGTDFTLKISRVEAEDVGVYYCAQGTSVPFTFGQGTKLEIK
B4: H183/L072 VL P56Q (antibody, name in Kabat numbering, V domains shown)
VH: QVQLVESGGGLVQPGRSLRLSCAASGFTFSNAWMHWVRQAPGKGLEWVAQIKDKGNAYAAYYAPSVKGRFTISRDDSKNSIYLQMNSLKTEDTAVYYCHYVHYASASTVLPAFGVDAWGQGTTVTVSS
VL: DIVMTQSPLSLPVTPGEPASISCQASQELVHMNRNTYLHWYQQKPGQAPRLLIYKVSNRFQGVPDRFSGSGSGTDFTLKISRVEAEDVGVYYCAQGTSVPFTFGQGTKLEIK
B5: H183/L072 VL P56R (antibody, name in Kabat numbering, V domains shown)
VH: QVQLVESGGGLVQPGRSLRLSCAASGFTFSNAWMHWVRQAPGKGLEWVAQIKDKGNAYAAYYAPSVKGRFTISRDDSKNSIYLQMNSLKTEDTAVYYCHYVHYASASTVLPAFGVDAWGQGTTVTVSS
VL: DIVMTQSPLSLPVTPGEPASISCQASQELVHMNRNTYLHWYQQKPGQAPRLLIYKVSNRFRGVPDRFSGSGSGTDFTLKISRVEAEDVGVYYCAQGTSVPFTFGQGTKLEIK
B6: H183/L072 VL P56S (antibody, name in Kabat numbering, V domains shown)
VH: QVQLVESGGGLVQPGRSLRLSCAASGFTFSNAWMHWVRQAPGKGLEWVAQIKDKGNAYAAYYAPSVKGRFTISRDDSKNSIYLQMNSLKTEDTAVYYCHYVHYASASTVLPAFGVDAWGQGTTVTVSS
VL: DIVMTQSPLSLPVTPGEPASISCQASQELVHMNRNTYLHWYQQKPGQAPRLLIYKVSNRFSGVPDRFSGSGSGTDFTLKISRVEAEDVGVYYCAQGTSVPFTFGQGTKLEIK
B7: H183/L072 VL P56T (antibody, name in Kabat numbering, V domains shown)
VH: QVQLVESGGGLVQPGRSLRLSCAASGFTFSNAWMHWVRQAPGKGLEWVAQIKDKGNAYAAYYAPSVKGRFTISRDDSKNSIYLQMNSLKTEDTAVYYCHYVHYASASTVLPAFGVDAWGQGTTVTVSS
VL: DIVMTQSPLSLPVTPGEPASISCQASQELVHMNRNTYLHWYQQKPGQAPRLLIYKVSNRFTGVPDRFSGSGSGTDFTLKISRVEAEDVGVYYCAQGTSVPFTFGQGTKLEIK
B8: H183/L072 VL P56N (antibody, name in Kabat numbering, V domains shown)
VH: QVQLVESGGGLVQPGRSLRLSCAASGFTFSNAWMHWVRQAPGKGLEWVAQIKDKGNAYAAYYAPSVKGRFTISRDDSKNSIYLQMNSLKTEDTAVYYCHYVHYASASTVLPAFGVDAWGQGTTVTVSS
VL: DIVMTQSPLSLPVTPGEPASISCQASQELVHMNRNTYLHWYQQKPGQAPRLLIYKVSNRFNGVPDRFSGSGSGTDFTLKISRVEAEDVGVYYCAQGTSVPFTFGQGTKLEIK

This experiment concerns the target T1, Human CD3eg linker (human).
T1 construct: Single-chain construct; also called recombinant human CD3
T1 chain: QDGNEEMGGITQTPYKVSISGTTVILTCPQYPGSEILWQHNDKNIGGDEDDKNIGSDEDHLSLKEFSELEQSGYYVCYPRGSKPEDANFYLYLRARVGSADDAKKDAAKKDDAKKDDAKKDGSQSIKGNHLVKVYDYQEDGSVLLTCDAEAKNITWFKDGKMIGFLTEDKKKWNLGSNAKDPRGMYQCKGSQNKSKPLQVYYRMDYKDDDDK
In words: SPR; fold vs parent H183/L072. On the technique in general: In SPR one partner is held on a chip, and binding of the other changes the refractive index at the surface.
Turning to B1, the “fold change of affinity” value stood at 3.9 fold.
For B2 the value was 3 fold; for B3, 3.4 fold; for B4, 3.7 fold.
For B5 the value was 5.5 fold; for B6, 4.1 fold.
B7: the “fold change of affinity” value was 3.9 fold.
The value for B8 was 3.3 fold.
